Results from patent US20210317168.

Molecular target: purified MN gp120 (clade B), P05877

B1: Calcium-dependent serine protease, complement component 1s (C1s) of CHO cells (protein)
chain: EPTMHGEILSPNYPQAYPNEIEKTWDIEVPEGFGIRLYFTHLDMELSENCEYDSVQIISGGVEEGRLCGQRTSKNANSPIVEEFQMPYNKLQVIFRSDFSNEERFTGFAAYYAAVDINECTDFTDVPCSHFCNNFIGGYFCSCPPEYFLHDDMRNCGVNCSGNVFTALIGEISSPNYPSPYPENSRCEYQILLEEGFQVVVTIRREDFDVEPADSEGNCQDSLLFAAKNQLFGPYCGNGFPGPLTIETHSNTLDIVFQTDLTEQRKGWKLRYHGDPIPCPKEITANSVWVPEKAKYVFKDVVKISCVDGFEVVEGNVGSAFFYSTCQSNGQWSNSRLQCQPVDCGIPEPIQNGKVDDPENTVFGSVIQYSCEEPYYYMEHEEHGGEYRCAANGSWVNDELGIELPKCVPVCGVPTEPIALQQRIFGGFPAKIQSFPWQVFFESPRAGGALIDEYWVLTAAHVVEGNSDPSMYVGTTFVRMEHLANAQRLTAERVIIHPGWKPADDLETRTNFDNDIALVQLKDPVKMGPTVSPICLPGTSSEYNPSKNDLGLISGWGRTEKRNIVPQLKGAKLPVTSLEKCQQVKGENSKVRADDYVFTSNMICAGEKGVDSCQGDSGGAFALQVPNVKDPKFYVAGLVSWGKKCGTYGIYTKVKNYMDWIVKTMQENSVPSKD
proteolysis of gp120 in 10x concentrated CHO supernatant, western blot, with or without EGTA: inhibition of proteolysis of gp120 in CHO cell supernatant with EGTA, a calcium-chelating agent suggested that C1s is the major protease responsible for gp120 cleavage
